The record followed here is PMC4537179.

Common to all, as to experiment: SPR
The target in data set [1] is c-Myc bHLH-ZIP (Homo sapiens (human), UniProt P01106-1 353-437).
Data set [2] deals with Max(L) (UniProt P61244 1-160).
Data set [3] addresses Max(S) (UniProt P61244-2 1-151).

Chain of c-Myc bHLH-ZIP (P01106 368-452): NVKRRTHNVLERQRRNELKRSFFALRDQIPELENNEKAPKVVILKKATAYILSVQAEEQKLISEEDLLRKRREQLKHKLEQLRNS

B1: biotinylated E-box oligonucleotide (dsDNA)
DNA 1: TGAAGCAGACCACGTGGTCGTCTTCA
DNA 2: TGAAGACGACCACGTGGTCTGCTTCA
Regarding B1, the binding result in data set [1] is recorded as “no binding”; in data set [2] it was “binds”; in data set [3] it was “no binding”.
